How the values were obtained:
[1] = target: GST-PKM1 recombinant protein, P14618
[2] = target: GST-PKM2 recombinant protein, P14618
Chain of GST-PKM2 recombinant protein, P14618 (P14618 whole entry, looked up): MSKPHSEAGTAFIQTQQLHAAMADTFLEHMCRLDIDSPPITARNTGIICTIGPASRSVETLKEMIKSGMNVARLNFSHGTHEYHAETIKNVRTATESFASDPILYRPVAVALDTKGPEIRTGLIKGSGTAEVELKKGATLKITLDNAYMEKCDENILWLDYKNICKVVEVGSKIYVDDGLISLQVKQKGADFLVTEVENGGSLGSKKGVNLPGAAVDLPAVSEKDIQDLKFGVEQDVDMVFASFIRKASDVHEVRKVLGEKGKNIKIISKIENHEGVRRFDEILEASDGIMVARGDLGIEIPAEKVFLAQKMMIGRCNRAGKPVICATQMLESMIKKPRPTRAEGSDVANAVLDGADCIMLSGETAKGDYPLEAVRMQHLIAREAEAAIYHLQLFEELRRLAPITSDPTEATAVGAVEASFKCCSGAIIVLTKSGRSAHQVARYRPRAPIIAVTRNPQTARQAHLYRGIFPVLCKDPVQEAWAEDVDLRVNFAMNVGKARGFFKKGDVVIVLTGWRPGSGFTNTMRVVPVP

Chain of GST-PKM1 recombinant protein, P14618 (P14618 other isoform, or with tags, fused parts or gaps): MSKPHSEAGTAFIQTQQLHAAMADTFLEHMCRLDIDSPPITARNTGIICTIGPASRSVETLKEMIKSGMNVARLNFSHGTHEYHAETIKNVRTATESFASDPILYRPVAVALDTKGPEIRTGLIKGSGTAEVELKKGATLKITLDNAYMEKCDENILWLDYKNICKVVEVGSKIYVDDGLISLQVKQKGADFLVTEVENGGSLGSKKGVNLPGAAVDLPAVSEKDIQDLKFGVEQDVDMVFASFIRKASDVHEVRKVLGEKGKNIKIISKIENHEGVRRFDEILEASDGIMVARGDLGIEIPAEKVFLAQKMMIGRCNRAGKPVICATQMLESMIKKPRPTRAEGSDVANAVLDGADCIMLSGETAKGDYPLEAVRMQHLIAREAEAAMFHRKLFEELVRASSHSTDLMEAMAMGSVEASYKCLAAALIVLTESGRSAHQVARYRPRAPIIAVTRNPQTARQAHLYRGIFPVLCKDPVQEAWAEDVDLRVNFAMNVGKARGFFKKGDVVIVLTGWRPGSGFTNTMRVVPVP

B1: recombinant CARM1 used in the in vitro methylation assays (protein)
chain: MAAAAAAVGPGAGGAGSAVPGGAGPCATVSVFPGARLLTIGDANGEIQRHAEQQALRLEVRAGPDSAGIALYSHEDVCVFKCSVSRETECSRVGKQSFIITLGCNSVLIQFATPNDFCSFYNILKTCRGHTLERSVFSERTEESSAVQYFQFYGYLSQQQNMMQDYVRTGTYQRAILQNHTDFKDKIVLDVGCGSGILSFFAAQAGARKIYAVEASTMAQHAEVLVKSNNLTDRIVVIPGKVEEVSLPEQVDIIISEPMGYMLFNERMLESYLHAKKYLKPSGNMFPTIGDVHLAPFTDEQLYMEQFTKANFWYQPSFHGVDLSALRGAAVDEYFRQPVVDTFDIRILMAKSVKYTVNFLEAKEGDLHRIEIPFKFHMLHSGLVHGLAFWFDVAFIGSIMTVWLSTAPTEPLTHWYQVRCLFQSPLFAKAGDTLSGTCLLIANKRQSYDISIVAQVDQTGSKSSNLLDLKNPFFRYTGTTPSPPPGSHYTSPSENMWNTGSTYNLSSGMAVAGMPTAYDLSSVIASGSSVGHNNLIPLANTGIVNHTHSRMGSIMSTGIVQGSSGAQGSGGGSTSAHYAVNSQFTMGGPAISMASPMSIPTNTMHYGS
[1]
  in vitro methylation assay (3H-SAM, autoradiography): only PKM2, but not PKM1, can be methylated by CARM1 in in vitro methylation assays
[2]
  in vitro methylation assay (3H-SAM, autoradiography): only PKM2, but not PKM1, can be methylated by CARM1 in in vitro methylation assays

— patent US20200276130
